The values that follow come from patent US20100160617.

Data set [1] has as its target HCV NS5B RNA-dependent RNA polymerase (Hepatitis C virus) (UniProt P26663). In words: SPR. The note with it: 2'-F on all C and U.
Data set [2] has the same target. The data set can be described thus: EMSA. The note with it: 2'-F on all C and U; apparent Kd; 4% nondenaturing gel. (In general: In EMSA bound probe runs differently from free probe, usually more slowly.)

HCV NS5B RNA-dependent RNA polymerase (Hepatitis C virus), sequence (P26663 2420-3010): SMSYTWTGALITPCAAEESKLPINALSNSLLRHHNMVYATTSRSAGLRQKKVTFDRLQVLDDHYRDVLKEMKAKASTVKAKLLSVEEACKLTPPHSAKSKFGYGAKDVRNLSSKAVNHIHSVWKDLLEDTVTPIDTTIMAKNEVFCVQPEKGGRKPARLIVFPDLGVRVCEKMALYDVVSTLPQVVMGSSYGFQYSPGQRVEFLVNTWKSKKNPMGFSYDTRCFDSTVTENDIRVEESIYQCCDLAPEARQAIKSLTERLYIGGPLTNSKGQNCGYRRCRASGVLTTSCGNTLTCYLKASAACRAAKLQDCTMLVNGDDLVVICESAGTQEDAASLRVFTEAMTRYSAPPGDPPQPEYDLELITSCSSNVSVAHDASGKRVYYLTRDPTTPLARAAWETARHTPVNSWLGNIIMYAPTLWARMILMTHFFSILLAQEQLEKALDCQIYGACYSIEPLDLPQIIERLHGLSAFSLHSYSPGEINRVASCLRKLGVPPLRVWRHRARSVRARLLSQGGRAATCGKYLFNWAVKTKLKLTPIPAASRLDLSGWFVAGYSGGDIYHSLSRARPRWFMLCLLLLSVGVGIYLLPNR

In the case of “AACGAUUGGUAGUAGAAUAUCGU [RNA aptamer #9-t3]”, the Kd in data set [1] (5' end of the transcript may carry extra G from T7 primer) was 40.4 nM. “GCUGGGCCUUGAACGAUUGGUAGUAGAAUAUCGUCAGUGAACGGC [RNA aptamer #9-t1]” came in with a Kd in data set [1] of 8.4 nM. As for “GGGAGAGCGGAAGCGUGCUGGGCCGACAGGGUAGCUUACAGCUGCAUGAUCGCUAGAGGGCGAACAUAACCCAGAGGUCGAUGGAUCCCCCC [RNA aptamer #24]”, the Kd in data set [2] was determined as 5 nM.

For the sequence “GGGAGAGCGGAAGCGUGCUGGGCCUUGAACGAUUGGUAGUAGAAUAUCGUCAGUGAACGGCAGUCAUAACCCAGAGGUCGAUGGAUCCU [RNA aptamer #9]”, in data set [2], the Kd was found to be 18 nM.

Sequence “GUUGAACGAUUGGUAGUAGAAUAUCGUCAG [RNA aptamer #9-t2]” had a Kd in data set [1] (listing SEQ 4 lacks the 5' G printed in text) of 2.6 nM.
